From article PMC7592150

Molecular target: PCSK9 (UniProt Q8NBP7)
Assay: SPR

Sequence of UniProt Q8NBP7 (Q8NBP7 31-692): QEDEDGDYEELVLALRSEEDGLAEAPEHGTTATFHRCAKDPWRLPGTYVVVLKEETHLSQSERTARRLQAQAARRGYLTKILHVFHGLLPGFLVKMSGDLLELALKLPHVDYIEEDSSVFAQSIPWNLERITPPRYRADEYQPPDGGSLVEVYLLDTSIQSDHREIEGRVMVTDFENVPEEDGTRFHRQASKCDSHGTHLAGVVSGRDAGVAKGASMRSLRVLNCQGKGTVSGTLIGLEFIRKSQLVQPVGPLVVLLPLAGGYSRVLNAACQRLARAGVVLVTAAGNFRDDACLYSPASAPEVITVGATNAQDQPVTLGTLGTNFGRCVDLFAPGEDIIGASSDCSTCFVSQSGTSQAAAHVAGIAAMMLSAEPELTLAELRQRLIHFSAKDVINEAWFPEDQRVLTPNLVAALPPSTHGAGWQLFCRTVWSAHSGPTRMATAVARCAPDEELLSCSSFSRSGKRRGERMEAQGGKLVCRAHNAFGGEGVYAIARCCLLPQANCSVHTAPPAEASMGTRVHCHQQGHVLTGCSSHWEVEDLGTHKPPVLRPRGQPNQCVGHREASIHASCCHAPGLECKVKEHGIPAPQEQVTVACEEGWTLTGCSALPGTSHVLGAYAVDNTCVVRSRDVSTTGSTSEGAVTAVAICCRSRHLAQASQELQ

Kd: 30 pM
Substance: Bococizumab (antibody)
